Source: the RNAGym collection of RNA variant scans (doi:10.1093/nar/gkz1192)

B1: CPEB3 Ribozyme (parent)
chain: UAACAGGGGGCCACAGCAGAAGCGUUCACGUCGCAGCCCCUGUCAGAUUCUGGUGAAUCUGCGAAUUCUGCUGUAUAUCUC

Variants of: B1
Assay: self-cleavage, relative activity (ratio to wild type); higher = more cleavage; in vitro, sequencing
In short: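 After error-prone PCR and barcoding, CPEB3 ribozyme mutant libraries were transcribed with T7 RNA polymerase at 37°C for 5 hours, then given 15 min with DNase I before an EDTA stop, and they cleaved during both steps. Reverse transcription with template switching preceded Illumina sequencing. Relative activity divides a variant's cleaved/total read fraction by the unmutated ribozyme's. At least 5 reads were required per variant, and three batches were averaged.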

Compared with A5C U48C, A5C A21G is lower in self-cleavage: 0.94 for the first, 0.69 for the second.

Going from A5C A21U to A5G U49A, the self-cleavage rises from 0.36 to 0.53.

Going from A5G U49C to A5C U72C, the self-cleavage rises from 0.31 to 1.09.

Going from A5C U72A to A5C U78C, the self-cleavage falls from 0.98 to 0.89.

Compared with A5U A47G, A5U C17G is lower in self-cleavage: 0.95 for the first, 0.26 for the second.

First: A5U C17U
Second: A5U A65G
The self-cleavage of the first is higher: 0.73 for the first, 0.55 for the second.

Going from A5U A65U to A5C A18G, the self-cleavage rises from 0.28 to 0.53.

Going from A5C U49C to A5U A28C, the self-cleavage rises from 0.54 to 0.77.

Going from A5U A28G to A5U A28U, the self-cleavage rises from 0.83 to 1.12.

First: A5G C39U
Second: A5G C39A
The self-cleavage of the first is higher: 0.67 for the first, 0.39 for the second.

First: A5G G55U
Second: A5G G55A
The self-cleavage of the first is lower: 0.26 for the first, 0.37 for the second.

Going from A5G G55C to A5G G7A, the self-cleavage falls from 0.65 to 0.6.

Going from A5G G7C to A5G G7U, the self-cleavage falls from 0.5 to 0.39.

Going from A5G C68A to A5G G9A, the self-cleavage falls from 0.46 to 0.39.

First: A5U A45U
Second: A5U A45G
The self-cleavage of the first is lower: 0.54 for the first, 1.02 for the second.

Going from A5U C37U to A5G C62A, the self-cleavage falls from 0.82 to 0.22.

Compared with A5G C62U, A5G C62G is lower in self-cleavage: 0.35 for the first, 0.14 for the second.

Going from A5G A35U to A5G A35C, the self-cleavage rises from 0.36 to 0.85.

Compared with A5G A35G, A5G U43G is lower in self-cleavage: 1.18 for the first, 0.3 for the second.

Going from A5G U43C to A5G U43A, the self-cleavage rises from 0.43 to 0.84.

First: A5C A75G
Second: A5G U74A
The self-cleavage of the first is lower: 0.69 for the first, 1.03 for the second.

First: A5G U74G
Second: A5G U74C
The self-cleavage of the first is higher: 1.41 for the first, 1.01 for the second.

Compared with A5G G53A, A5G G53C is lower in self-cleavage: 0.88 for the first, 0.8 for the second.

First: A5G G53U
Second: A5G C40A
The self-cleavage of the first is higher: 1.03 for the first, 0.26 for the second.

Compared with A5G C40U, A5G C40G is lower in self-cleavage: 0.27 for the first, 0.22 for the second.

Compared with A5C C34U, A5C C34G is lower in self-cleavage: 0.47 for the first, 0.41 for the second.

Going from A5G C59U to A5G C59A, the self-cleavage falls from 0.65 to 0.2.

Compared with A5U C29U, A5U C29A is lower in self-cleavage: 0.54 for the first, 0.36 for the second.

First: A5G U67A
Second: A5G U67C
The self-cleavage of the first is higher: 0.39 for the first, 0.34 for the second.

First: A5G G24C
Second: A5G G24U
The self-cleavage of the first is higher: 0.89 for the first, 0.24 for the second.

First: A5C A28G
Second: A5C A28U
The self-cleavage of the first is lower: 0.63 for the first, 1.12 for the second.

Going from A5G A47G to A5G A47U, the self-cleavage falls from 0.65 to 0.34.

Compared with A5G A47C, A5U C23G is lower in self-cleavage: 0.59 for the first, 0.08 for the second.

Going from A5U C23U to A5G U80A, the self-cleavage rises from 0.25 to 0.79.

First: A5G U80C
Second: A5C U66C
The self-cleavage of the first is higher: 0.66 for the first, 0.54 for the second.

Compared with A5G G22A, A5G G22C is higher in self-cleavage: 0.24 for the first, 0.34 for the second.

Going from A5U C38A to A5G C37U, the self-cleavage rises from 0.34 to 0.63.

Compared with A5U C12U, A5G A20U is lower in self-cleavage: 1.14 for the first, 0.37 for the second.

First: A5G A20C
Second: A5G A20G
The self-cleavage of the first is higher: 0.58 for the first, 0.54 for the second.

First: A5G A13C
Second: A5G A13G
The self-cleavage of the first is higher: 0.76 for the first, 0.56 for the second.

First: A5G A13U
Second: A5C C71U
The self-cleavage of the first is higher: 0.98 for the first, 0.57 for the second.

For A5U A64C, the self-cleavage was 0.32.
